“And” between values parts separate entries of the source, which are not always exact repeats. Equal values may be shown once. Read-outs that look alike come from different tables or passages of the source.
What was measured:
[1] = biodistribution in mice with CCK2R-positive xenografts; type: in vivo, female CD1-nu mice; settings: female, CD1-nu, mouse, in vivo, total radioactivity; for tissue uptake at 1 h: 1 h p.i.; for tissue uptake at 24 h: 24 h p.i.
Experimental: (§1) Procedures for biodistribution studies with ^177Lu-labeled conjugates (10 pmol, 100 µL, 0.1 µM in PBS, 0.5 MBq, 1 µg/kg) in female CD1-nu mice with xenografts of A431-CCK2R cells at 1, 4, and 24 h p.i., as well as blocking experiments at 4 h p.i. with a 6000-fold excess of minigastrin have been reported previously and were followed without modifications. Statistical analysis was performed via GraphPad Prism using two-sided analysis of variance. n = 4 animals per group.

[2] = tested on: xenografts of A431-CCK2R cells; test: as above; type: in vivo, female CD1-nu mice
Experimental: as §1

[3] = set-up: method as in PMID 30608664; settings: 177Lu-labeled; 24 h incubation, human blood plasma; reported previously; cited from earlier work
[4] = set-up: method as in PMID 30608664; settings: 177Lu-labeled; mouse blood, 10 min p.i.; reported previously; cited from earlier work
[5] = 10 pmol, read-out: Heart uptake
[6] = 10 pmol, read-out: Intestines uptake
[7] = 10 pmol, read-out: Kidneys uptake
[8] = 10 pmol, read-out: Liver uptake
[9] = 10 pmol, read-out: Pancreas uptake
[10] = 10 pmol, read-out: Spleen uptake
[11] = 10 pmol, read-out: Stomach (CCK2R-positive) uptake
[12] = 10 pmol, read-out: Tumor (CCK2R-positive) uptake

CCCC[C@H](NC(=O)[C@H](Cc1c[nH]c2ccccc12)NC(=O)CNC(=O)[C@H](Cc1ccc(O)cc1)NC(=O)[C@H](C)NC(=O)[C@@H](CCC(=O)O)NC(=O)[C@@H](CCC(=O)O)NC(=O)[C@@H](CCC(=O)O)NC(=O)[C@@H](CCC(=O)O)NC(=O)[C@@H](CCC(=O)O)NC(=O)[C@@H](CCC(=O)O)NC(=O)CN1CCN(CC(=O)O)CCN(CC(=O)O)CCN(CC(=O)O)CC1)C(=O)N[C@@H](CC(=O)O)C(=O)N[C@@H](Cc1ccccc1)C(N)=O [PP-F11N, DOTA-(DGlu)6-Ala-Tyr-Gly-Trp-Nle-Asp-Phe-NH2]
tissue uptake at 1 h ([1]; 10 pmol, read-out: Bone uptake): 0.88 %ID/g | tissue uptake at 1 h [1, 5]: 0.08 %ID/g | tissue uptake at 1 h [1, 6]: 0.12 %ID/g | tissue uptake at 1 h [1, 7]: 2.75 %ID/g | tissue uptake at 1 h [1, 8]: 0.09 %ID/g | tissue uptake at 1 h ([1]; 10 pmol, read-out: Lung uptake): 0.16 %ID/g | tissue uptake at 1 h ([1]; 10 pmol, read-out: Muscle uptake): 0.13 %ID/g | tissue uptake at 1 h [1, 9]: 0.18 %ID/g | tissue uptake at 1 h [1, 10]: 0.06 %ID/g | tissue uptake at 1 h [1, 11]: 1.02 %ID/g | tissue uptake at 1 h [1, 12]: 6.92 %ID/g | tissue uptake at 4 h ([1]; 10 pmol, 4 h (blocked), excess minigastrin, read-out: Bone uptake): 0.15 %ID/g | tissue uptake at 4 h ([1]; 10 pmol, 4 h (blocked), excess minigastrin, read-out: Muscle uptake): 0.01 %ID/g | tissue uptake at 4 h ([1]; 10 pmol, 4 h p.i., read-out: Blood uptake): 0.01 %ID/g | tissue uptake at 4 h ([1]; 10 pmol, 4 h p.i., read-out: Bone uptake): 0.22 %ID/g | tissue uptake at 4 h ([1]; 10 pmol, 4 h p.i., read-out: Heart uptake): 0.03 %ID/g | tissue uptake at 4 h ([1]; 10 pmol, 4 h p.i., read-out: Intestines uptake): 0.05 %ID/g | tissue uptake at 4 h ([1]; 10 pmol, 4 h p.i., read-out: Kidneys uptake): 2.42 %ID/g | tissue uptake at 4 h ([1]; 10 pmol, 4 h p.i., read-out: Liver uptake): 0.06 %ID/g | tissue uptake at 4 h ([1]; 10 pmol, 4 h p.i., read-out: Lung uptake): 0.03 %ID/g | tissue uptake at 4 h ([1]; 10 pmol, 4 h p.i., read-out: Muscle uptake): 0.02 %ID/g | tissue uptake at 4 h ([1]; 10 pmol, 4 h p.i., read-out: Pancreas uptake): 0.09 %ID/g | tissue uptake at 4 h ([1]; 10 pmol, 4 h p.i., read-out: Spleen uptake): 0.03 %ID/g | tissue uptake at 4 h ([1]; 10 pmol, 4 h p.i., read-out: Stomach (CCK2R-positive) uptake): 1.04 %ID/g | tissue uptake at 4 h ([1]; 10 pmol, 4 h p.i., read-out: Tumor (CCK2R-positive) uptake): 4.07 %ID/g | tissue uptake at 24 h ([1]; 10 pmol, read-out: Bone uptake): 0.1 %ID/g | tissue uptake at 24 h [1, 5]: 0.01 %ID/g | tissue uptake at 24 h [1, 6]: 0.03 %ID/g | tissue uptake at 24 h [1, 7]: 1.72 %ID/g | tissue uptake at 24 h [1, 8]: 0.04 %ID/g | tissue uptake at 24 h ([1]; 10 pmol, read-out: Lung uptake): 0.02 %ID/g | tissue uptake at 24 h [1, 9]: 0.08 %ID/g | tissue uptake at 24 h [1, 10]: 0.02 %ID/g | tissue uptake at 24 h [1, 11]: 0.67 %ID/g | tissue uptake at 24 h [1, 12]: 2.73 %ID/g | tissue uptake at 4 h ([1]; 4 h (blocked), excess minigastrin, read-out: Blood uptake): 0.01 %ID/g | tissue uptake at 4 h ([1]; 4 h (blocked), excess minigastrin, read-out: Heart uptake): 0.02 %ID/g | tissue uptake at 4 h ([1]; 4 h (blocked), excess minigastrin, read-out: Intestines uptake): 0.03 %ID/g | tissue uptake at 4 h ([1]; 4 h (blocked), excess minigastrin, read-out: Kidneys uptake): 2.57 %ID/g | tissue uptake at 4 h ([1]; 4 h (blocked), excess minigastrin, read-out: Liver uptake): 0.07 %ID/g | tissue uptake at 4 h ([1]; 4 h (blocked), excess minigastrin, read-out: Lung uptake): 0.04 %ID/g | tissue uptake at 4 h ([1]; 4 h (blocked), excess minigastrin, read-out: Pancreas uptake): 0.04 %ID/g | tissue uptake at 4 h ([1]; 4 h (blocked), excess minigastrin, read-out: Spleen uptake): 0.04 %ID/g | tissue uptake at 4 h ([1]; 4 h (blocked), excess minigastrin, read-out: Stomach (CCK2R-positive) uptake): 0.12 %ID/g | tissue uptake at 4 h ([1]; 4 h (blocked), excess minigastrin, read-out: Tumor (CCK2R-positive) uptake): 1.3 %ID/g | Tumor (CCK2R-positive) uptake ([2]; 1 h p.i.): 6.92 ± 2.21 % i.A./g | Tumor (CCK2R-positive) uptake ([2]; 4 h p.i.): 4.07 ± 1.40 % i.A./g | Tumor (CCK2R-positive) uptake ([2]; 24 h p.i.): 2.73 ± 0.84 % i.A./g and 2.7 ± 0.8 % i.A./g | Intact Compound In Vitro (%), 24 h, Blood Plasma [3]: 98.1 ± 0.9% | Intact Compound In Vivo (%), 10 min [4]: 43% and 43.1 ± 2.7%

Source: publication PMC8199036, “Improved Tumor-Targeting with Peptidomimetic Analogs of Minigastrin ^177Lu-PP-F11N” (Cancers, 2021)
